Data set [1] in a line: survival after PUGNAc then Fas antibody. To be noted: glycan lost; control: FVB/n and hK18 WT mice.
The nature of data set [2]: gross appearance, histology, Oil red O, PAS, insulin stain. The conditions noted are these: glycan lost; control: hK18 WT mice.
Data set [3] is described as follows: Coomassie of high salt extract, hK18 blot. The conditions noted are these: glycan lost; control: hK18-WT mouse line.
Data set [4] is described as follows: immunofluorescence of liver and pancreas, basal. To be noted: glycan lost; control: hK18 WT mice.
A short description of a further data set: anti-K18 pS53 blot. To be noted: glycan lost; control: K18 WT transfectants.

B1: keratin 18 (K18, hK18): K18 S30/31/49A (Gly−) (protein)
parent chain: MSFTTRSTFSTNYRSLGSVQAPSYGARPVSSAASVYAGAGGSGSRISVSRSTSFRGGMGSGGLATGIAGGLAGMGGIQNEKETMQSLNDRLASYLDRVRSLETENRRLESKIREHLEKKGPQVRDWSHYFKIIEDLRAQIFANTVDNARIVLQIDNARLAADDFRVKYETELAMRQSVENDIHGLRKVIDDTNITRLQLETEIEALKEELLFMKKNHEEEVKGLQAQIASSGLTVEVDAPKSQDLAKIMADIRAQYDELARKNREELDKYWSQQIEESTTVVTTQSAEVGAAETTLTELRRTVQSLEIDLDSMRNLKASLENSLREVEARYALQMEQLNGILLHLESELAQTRAEGQRQAQEYEALLNIKVKLEAEIATYRRLLEDGEDFNLGDALDSSNSMQTIQKTTTRRIVDGKVVSETNDTKVLRH
B1: the “other: mouse lethality after PUGNAc/Fas” value in data set [1] was “increases”. In addition, the “other: tissue injury after STZ” value in data set [2] is on record as “increases”. The expression_or_secretion result in data set [3] is listed as “no change”. Moreover, the “other: keratin filament organisation” value in data set [4] is “no change”.

B2: keratin 18 (K18, hK18): K18 Gly− (protein)
parent chain: B1 parent chain
As for B2, the “other: K18 S34/S53 phosphorylation” value in the data set “anti-K18 pS53 blot” is listed as “no change”.

Values taken from paper PMC3549664.
